The supplement of paper PMC10567573

B1: CLPTM1 (parent)
chain: LGCYAVYSLLYLEHKGWYSWVLSM

Variants of: B1
Assay: protein stability index of a GFP-peptide fusion (GPS, HEK-293T) (PSI 1-6); higher = more stable
Settings: c terminus: a fixed tail appended
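Note: lentivirally expressed fusions sorted by FACS into six bins by GFP to DsRed ratio, PSI derived from sequencing read proportions per bin multiplied by bin number.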

Protein stability index of substitutions, site by site:
G2: V 2.32; W 2.07; Y 3.37
C3: D 2.59; E 3.26; F 2.37; G 2.35; H 2.58; I 2.62; K 2.74; L 3.21; M 3.15; N 3.61; P 2.26; R 1.63; S 3.55; T 2.52; V 3.36; W 2.24; Y 3.21
Y4: A 4.36; C 3.33; D 1.9; F 2.33; G 3.18; H 2.69; I 1.89; K 3.58; L 3.04; M 3.4; N 3.2; P 3.14; Q 2.4; R 2.91; S 3.75; T 3.11; V 3.14; W 2.19
A5: C 3.34; D 2.12; E 3.12; F 3.69; H 2.82; I 3.28; K 2.91; L 4.56; M 2; N 4.03; R 2.43; S 3.5; T 2.57; W 4.06
V6: A 3.13; C 4.28; D 3.58; E 2.84; F 3.45; G 2.72; H 2.31; I 3.34; K 2.83; L 3.28; M 2.22; N 2.73; P 2.49; R 2.3; S 2.76; T 2.61; W 1.84
Y7: C 3.42; D 3.78; E 2.54; F 3.72; H 2.13; I 3.09; K 2.19; M 3.54; N 5.04; P 3.71; Q 2.39; R 2.82; V 3.4; W 3.23
S8: A 2.25; C 2.96; E 1.27; G 4.38; H 2.55; I 3.15; K 3.64; N 4.1; P 3.57; T 2.09; V 1.96; W 1.43
L9: C 2.03; D 3.48; E 2.13; F 4.07; G 1.77; H 1.71; I 2.15; K 2.65; M 2.92; N 3.39; P 4.54; Q 2.67; R 2.18; S 2.77; T 1.75; V 1.94; W 2.7; Y 2.36
L10: A 2.39; C 2.87; D 3.21; F 3.57; G 3.1; H 2.84; I 3.43; K 3.39; M 2.82; N 3.35; P 2.45; Q 3.9; R 1.94; S 1.76; T 2.74; W 2.32; Y 2.5
Y11: D 2.36; E 3.13; F 3.26; G 4.08; H 2.09; I 3; K 2.63; M 2.05; N 2; P 2.2; Q 3.22; S 1.87; T 2.69; W 2.68
L12: C 2.68; D 2.74; E 3.57; F 3.31; G 3.12; H 2.99; I 3.36; K 3.11; M 4.09; N 4.59; P 3.25; Q 3.59; R 4.16; S 2.02; T 2.14; V 2.89; W 2.4; Y 2.43
E13: A 1.11; C 2.64; D 2.51; F 3.1; G 1.95; H 3.66; I 4.56; L 3.4; M 2.58; P 3.78; T 3.83; Y 2.12
H14: A 3.68; C 2.45; D 2.41; F 3.12; G 2.4; I 2.44; L 2.4; M 2.53; N 2.58; P 2.6; Q 3.42; R 2.22; S 2.43; T 3.37; V 2.52; W 3.16; Y 3.4
K15: A 1.32; C 2.9; F 2.41; G 1.81; H 3.75; I 2.89; L 3.23; M 3.9; N 3.11; P 3.92; Q 1.25; S 2.73; T 4.26; V 2.65; W 2.46; Y 2.57
G16: A 4.05; D 2.47; E 2.88; F 2; H 3.98; M 2.67; N 2.7; P 2.75; R 1.42; T 2.75; V 2.84
W17: A 3.3; C 2.36; D 2.76; E 2.81; F 1.55; G 2.14; I 2.71; K 3.85; L 2.96; N 4.13; P 2.44; R 2.16; T 3.28; Y 2.38
Y18: C 1.27; D 3.53; F 2.61; G 2.21; H 2.44; I 3.27; K 2.08; L 2.48; M 2.61; N 3.45; P 3.5; Q 2.56; R 3.76; V 2.95; W 3.03
S19: A 4.22; C 3.08; E 2.27; F 2.47; G 2.71; I 3.66; K 3.27; N 3.88; P 2.93; Q 3.63; R 1.76; T 3.99; V 1.92; W 2.66; Y 2.62
W20: C 3.98; D 2.14; E 3.54; F 1.72; G 2.21; H 1.87; I 3.33; K 2.65; L 2.91; M 3.21; N 3.58; P 3.37; Q 2.07; R 2.84; S 2.21; T 2.45; V 3.55
V21: A 2.45; C 4.16; D 1.56; E 3.46; F 2.12; G 2.62; H 2.45; I 1.96; K 2.12; L 2.77; M 2.45; N 3.02; P 3.65; R 1.99; S 3.6; T 2.31; W 3.42; Y 2.63
L22: A 3.33; C 4.24; E 3.17; F 3.46; G 1.72; I 3.34; K 2.01; M 2.11; P 3.42; Q 2.18; R 2.45; S 3.49; T 1.98; W 2.58; Y 3.5
S23: C 3.78; F 2.11; G 2.17; H 2.63; I 3.17; L 2.41; M 3.15; N 2.27; P 4.18; Q 3.11; R 2.26; T 1.72; V 1.82; W 3.03; Y 2.49
M24: A 2.39; C 4.42; D 2.05; E 5.08; F 4.41; G 4.14; H 3.76
